Data as given in PMC4601014 (Scientific Reports, 2015).

Molecular target: His/S-ΔIBB importin-α1 (mouse, residues 70–529), wild-type (mouse, UniProt P52293 70-529)
Assay: ELISA
Conditions: both partners purified

B1: GST-NP ncNLS, wild-type (peptide)
chain: ASQGTKRSYEQMET
notes: also called GST-tagged ncNLS; not shown: GST, N-terminal, kept
Kd: 1700 nM
